# Assay results: patent US10487318
# T1: fluorescent analogue of gliadin, hexapeptide QPQLPY conjugated to a fluorophore and a quencher
# T1 chain: QPQLPY
# T2: Glia_56-79 peptide (LQLQPFPQPQLPYPQPQLPY)
# T2 chain: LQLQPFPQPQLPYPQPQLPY
# T3: 33mer peptide (LQLQPFPQPQLPYPQPQLPYPQPQLPYPQPQPF)
# T3 chain: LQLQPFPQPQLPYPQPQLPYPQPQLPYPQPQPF
# T4: α2-gliadin peptide (PQPQLPYSQPQPFR)
# T4 chain: PQPQLPYSQPQPFR
# T5: α9-gliadin peptide (QLQPFPQPQLPY)
# T5 chain: QLQPFPQPQLPY
# T6: fluorescently quenched α-gliadin hexapeptide analogue QXL520-PQPQLP-K(5-FAM)-NH2
# T6 chain: PQPQLP
# T7: γ-gliadin peptide (IQPQQPAQL)
# T7 chain: IQPQQPAQL
# T8: 26mer peptide (FLQPQQPFPQQPQQPYPQQPQQPFPQ)
# T8 chain: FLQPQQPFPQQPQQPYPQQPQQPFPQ
# B1: Kumamolisin-As (wild type) (protein)
# chain: MSDMEKPWKEGEEARAVLQGHARAQAPQAVDKGPVAGDERMAVTVVLRRQRAGELAAHVERQAAIAPHAREHLKREAFAASHGASLDDFAELRRFADAHGLALDRANVAAGTAVLSGPVDAINRAFGVELRHFDHPDGSYRSYLGEVTVPASIAPMIEAVLGLDTRPVARPHFRMQRRAEGGFEARSQAAAPTAYTPLDVAQAYQFPEGLDGQGQCIAIIELGGGYDEASLAQYFASLGVPAPQVVSVSVDGASNQPTGDPSGPDGEVELDIEVAGALAPGAKFAVYFAPNTDAGFLDAITTAIHDPTLKPSVVSISWGGPEDSWTSAAIAAMNRAFLDAAALGVTVLAAAGDSGSTDGEQDGLYHVDFPAASPYVLACGGTRLVASGGRIAQETVWNDGPDGGATGGGVSRIFPLPAWQEHANVPPSANPGASSGRGVPDLAGNADPATGYEVVIDGEATVIGGTSAVAPLFAALVARINQKLGKAVGYLNPTLYQLPADVFHDITEGNNDIANRAQIYQAGPGWDPCTGLGSPIGVRLLQALLPSASQPQPGSTENLYFQSGALEHHHHHH
# B2: KumaMax™ (protein)
# chain: MSDMEKPWKEGEEARAVLQGHARAQAPQAVDKGPVAGDERMAVTVVLRRQRAGELAAHVERQAAIAPHAREHLKREAFAASHGASLDDFAELRRFADAHGLALDRANVAAGTAVLSGPDDAINRAFGVELRHFDHPDGSYRSYLGEVTVPASIAPMIEAVLGLDTRPVARPHFRMQRRAEGGFEARSQAAAPTAYTPLDVAQAYQFPEGLDGQGQCIAIIELGGGYDEASLAQYFASLGVPAPQVVSVSVDGASNQPTGDPKGPDGEVELDIEVAGALAPGAKFAVYFAPDTTAGFLDAITTAIHDPTLKPSVVSISWSGPEDSWTSAAIAAMNRAFLDAAALGVTVLAAAGDSGSTGGEQDGLYHVHFPAASPYVLACGGTRLVASGGRIAQETVWNDGPDGGATGGGVSRIFPLPAWQEHANVPPSANPGASSGRGVPDLAGNADPATGYEVVIDGEATVIGGTSAVAPLFAALVARINQKLGKAVGYLNPTLYQLPADVFHDITEGNNDIANRAQIYQAGPGWDPCTGLGSPIGVRLLQALLPSASQPQPGSTENLYFQSGALE
# B3: Homologue 9 (NCBI YP_005042475) (protein)
# chain: MTKQPVSGSSDKIHPDDAKCIGDCDPSEQIEVIVMLRRKDEAGFRQMMSRIDAGEAPGQAVSREEFDRRFTASDEDIDKVKAFAKQYGLSVERAETETRSVVLKGTIEQFQKAFDVKLERFQHHNIGEYRGRTGPVNVPDEMHDAVTAVLGLDSKPQARPHFRFRPPFKPLRGAAPASFSPVDLAKLYDFPDGDGAGQCIAIIELGGGYRDSDLSAYFSKLGVKAPTVVPVGVDGGKNAPTGNPNGPDGEVTLDIEIAGAIAPGARIAVYFAPNSDAGFVDAVNRALHDAANKPSVISISWGGPESNWSPQSMSAFNDVLQSAAALGVTVCAASGDGGSADGVGDGADHVDFPASSPYVLGCGGTSLAASGAGIAKEVVWNDGDQGGAGGGGVSGTFALPVWQKGLSVTRNGKHIALAKRGVPDVAGDASPQTGYEVLIDGEDTVVGGTSAVAPLWAALIARINAIDASPAGFVNPKLYKAKTAFRDITEGNNGSFSAAAGWDACTGMGSPDGGKIAAALKPAKPSQSAGQQ
# B4: Homologue 4 mutant (protein)
# chain: MANHPLNGSERECLKDAQPIGKADPNERLEVTMLVRRRSHDAFEKHISALAAQGASAKHIDHDEFTKHFGADSADLAAVHAFAQKHGLSVVESHEARRAVVLSGTVAQFDAAFGVSLQQYEHDGGTYRGRTGPIHLPDELNGVVDAVMGLDNRPQARPSFRTRAQGNVRWTARAAGASTFTPVQLASLYDFPQGDGQNQCIGIIELGGGYRPADLKTYFASLNMKAPSVTAVSVDHGRNHPTGDPNGPDGEVMLDIEVAGAVAPGAKIVVYFAPNTDAGFIDAIGTAIHDTKNKPSVISISWSGPESAWTQQAMNAFDQAFQSAAALGVTICAASGDNGSGGGVGDGADHVHFPASSPYALGCGGTSLQASGNGIASETVWNDGANGGATGGGVSSFFALPAWQEGLRVTRAGGAHSPLAMRGVPDVAGNADPVTGYEVRVDGHDMVIGGTSAVAPLWAGLIARINAIKGAPVGYINPHLYKDPLALVDITKGNNDDFHATAGWDACTGLGRPDGKKVKDAVS
# Legend:
# [1] = target: T1, fluorescent analogue of gliadin, …
# [2] = target: T2, Glia_56-79 peptide …
# [3] = target: T3, 33mer peptide …
# [4] = target: T4, α2-gliadin peptide (PQPQLPYSQPQPFR)
# [5] = target: T5, α9-gliadin peptide (QLQPFPQPQLPY)
# [6] = target: T6, fluorescently quenched α-gliadin …
# [7] = target: T7, γ-gliadin peptide (IQPQQPAQL)
# [8] = target: T8, 26mer peptide …
Protein,"rate of degradation of the fluorescent hexapeptide, pH 4.0, 37° C. [1]",grade and % of peptide after an 80-min incubation [2],Degradation pattern of 33mer (60 min) [3],activity on peptide (percent) [3],grade and % of peptide after an 80-min incubation [4],grade and % of peptide after an 80-min incubation [5],Fold Change in Activity of PQ Hydrolysis Relative to Wild Type Kumamolysin-As [6],grade and % of peptide after an 80-min incubation [7],activity on peptide (percent) [8]
B1,Kumamolisin has some activity breaking down these gliadin substrates,+++; 0.2%,degrades the 33-mer down at only a single location (WT-like),18%,++ (undetect),++; 2%;,1 fold,++/-; 39%,
B2,,++++,degrades the 33-mer at multiple locations (Max-like),0.1%,+/-; 65%,++; 0.9%,,+/-; 55%,26%
B3,had activity comparable to or better than Kumamolisin under these conditions,+; 9%,,,++ (undetect),+/-; 62%,,++/-; 32%,52%
B4,,,,10%,,,,,19%
